The series has as its system wild-type DNA polymerase beta (human). The series is described as follows: EMSA. The conditions noted are these: 10 nM DNA, 5 mM MgCl2; approximately 50% of DNA bound at 32 nM enzyme; EMSA: 50 mM Tris-HCl pH 7.5, 100 mM KCl, 5 mM MgCl2, 1 mM DTT, 10% glycerol, 100 ug/ml BSA, room temperature 5 min; 10% native PAGE at 4 C. In general terms: A gel shift assay detects complexes by their altered migration in electrophoresis.

As to 1-nt gapped 34-bp DNA, the K half worked out at 32 nM.

For the origin of these results see publication PMC6616571.
